Source: US20210292416A1 (Eli Lilly, published 2021)

B1: Antibody p-7A5 (the parental antibody of the anti-CD137 arm of Antibody A) (antibody, V domains shown)
VH: QVQLVQSGAEVKKPGSSVKVSCKASGGTFSSYAISWVRQAPGQGLEWMGGIIPIFGTANYAQKFQGRVTITADESTSTAYMELSSLRSEDTAVYYCARDLMTTAPGTYFDLWGRGTLVTVSS
VL: AIRMTQSPPSLSASVGDRVTITCQASQDIGNSLGWYQQKPGKAPKLVIFDASDLETGVPSRFSGSGSGTDFSLTISSLQPEDFATYYCQQGNSFPLTFGQGTRLEIK
notes: Parental monoclonal anti-CD137 antibody; also called Antibody 7A5; parental antibody 7A5
B2: Antibody p-11444 (the parental antibody of the anti-PD1 arm of Antibody A) (antibody, V domains shown)
VH: QVQLVQSGAEVKKPGSSVKVSCKASGGTFSSYAISWVRQAPGQGLEWMGLIIPMFDTAGYAQKFQGRVAITVDESTSTAYMELSSLRSEDTAVYYCARAEHSSTGTFDYWGQGTLVTVSS
VL: DIQMTQSPSSVSASVGDRVTITCRASQGISSWLAWYQQKPGKAPKLLISAASSLQSGVPSRFSGSGSGTDFTLTISSLQPEDFATYYCQQANHLPFTFGGGTKVEIK
notes: Parental monoclonal anti-PD-1 antibody
B3: BMS20H4.9 (antibody, V domains shown)
VH: QVQLQQWGAGLLKPSETLSLTCAVYGGSFSGYYWSWIRQSPEKGLEWIGEINHGGYVTYNPSLESRVTISVDTSKNQFSLKLSSVTAADTAVYYCARDYGPGNYDWYFDLWGRGTLVTVSS
VL: EIVLTQSPATLSLSPGERATLSCRASQSVSSYLAWYQQKPGQAPRLLIYDASNRATGIPARFSGSGSGTDFTLTISSLEPEDFAVYYCQQRSNWPPALTFGGGTKVEIKR

Columns and labels:
[1] = molecular target: T1, human CD137-ECD (human, UniProt Q07011 24-186); assay: SPR (Biacore 2000) at 37 C, antibody captured on Protein A, soluble CD137-ECD as analyte, steady state affinity fit
T1 construct: In-house generated soluble ECD

[2] = molecular target: T2, human PD-1 (on cells) (human, UniProt Q15116 25-288); assay: cell-based or functional assay
[3] = molecular target: human CD137 (on cells) (human, UniProt Q07011 24-255); assay: cell-based or functional assay
[4] = molecular target: T3, human CD137-ECD-C121S-Fc mutant G98K (human, UniProt Q07011 24-186); assay: point ELISA on coated CD137-Fc mutant, mean of normalised absorbance over eight concentrations
T3 construct: Mutant of human CD137-ECD-C121S-Fc; not shown: Fc part
Text: (§1) The CD137-Fc mutants are generated using the standard protocol of a commercially-available site directed mutagenesis kit (Quickchange II kit, […]). The wild-type and mutant CD137-Fc proteins are expressed and purified. […] To determine the impact of a mutation on the binding of the antibodies, a point ELISA assay against CD137-Fc wild type and mutants is utilized. The wells of a 96-well Immulon 4HBX ELISA plate are coated overnight with 50 nanograms of human CD137-ECD-C121S-Fc or its mutants in 100 microliters of PBS, pH 7.2 with mild agitation at 4° C. After blocking (with 5% BSA in PBST) and washing, a five-fold dilution eight-point series (100 to 0.00128 nanomolar) of the designated antibody is added and incubated with mild agitation at room temperature for 1 h. The wells are washed and a HRP-conjugated secondary antibody (1:10000 dilution of HRP-conjugated goat anti-Fab antibody (Jackson ImmunoResearch Laboratories) is added and incubated at room temperature following standard protocol. TMB peroxidase chromogenic substrate and stop solution are used according to manufacturer's instruction for visualization and detection of signals. Absorbance readings for each concentration point is normalized by the absorbance of the wild-type interaction. For each mutant, the mean of the normalized ratio for the eight concentrations is determined.

[5] = molecular target: T4, human CD137-ECD-C121S-Fc mutant Q67V (human, UniProt Q07011 24-186); assay: as above
T4 construct: Mutant of human CD137-ECD-C121S-Fc; not shown: Fc part
Text: as §1

[6] = molecular target: T5, human CD137-ECD-C121S-Fc mutant P27L (human, UniProt Q07011 24-186); assay: as above
T5 construct: Mutant of human CD137-ECD-C121S-Fc; not shown: Fc part
Text: as §1

[7] = molecular target: T6, human CD137-ECD-C121S-Fc mutant D63N (human, UniProt Q07011 24-186); assay: as above
T6 construct: Mutant of human CD137-ECD-C121S-Fc; not shown: Fc part
Text: as §1

[8] = molecular target: T7, human CD137-ECD-C121S-Fc mutant Q104K (human, UniProt Q07011 24-186); assay: as above
T7 construct: Mutant of human CD137-ECD-C121S-Fc; not shown: Fc part
Text: as §1

[9] = molecular target: T8, human CD137-ECD-C121S-Fc mutant M101R (human, UniProt Q07011 24-186); assay: as above
T8 construct: Mutant of human CD137-ECD-C121S-Fc; not shown: Fc part
Text: as §1

[10] = molecular target: T9, human CD137-ECD-C121S-Fc mutant N42S (human, UniProt Q07011 24-186); assay: as above
T9 construct: Mutant of human CD137-ECD-C121S-Fc; not shown: Fc part
Text: as §1

[11] = molecular target: T10, human CD137-ECD-C121S-Fc mutant G98Q (human, UniProt Q07011 24-186); assay: as above
T10 construct: Mutant of human CD137-ECD-C121S-Fc; not shown: Fc part
Text: as §1

[12] = molecular target: T11, human CD137-ECD-C121S-Fc mutant K114E (human, UniProt Q07011 24-186); assay: as above
T11 construct: Mutant of human CD137-ECD-C121S-Fc; not shown: Fc part
Text: as §1

[13] = molecular target: T12, human CD137-ECD-C121S-Fc mutant Q67R (human, UniProt Q07011 24-186); assay: as above
T12 construct: Mutant of human CD137-ECD-C121S-Fc; not shown: Fc part
Text: as §1

[14] = molecular target: T13, human CD137-ECD-C121S-Fc mutant A97P (human, UniProt Q07011 24-186); assay: as above
T13 construct: Mutant of human CD137-ECD-C121S-Fc; not shown: Fc part
Text: as §1

[15] = molecular target: T14, human CD137-ECD-C121S-Fc mutant K115Q (human, UniProt Q07011 24-186); assay: as above
T14 construct: Mutant of human CD137-ECD-C121S-Fc; not shown: Fc part
Text: as §1

[16] = molecular target: T15, human CD137-ECD-C121S-Fc mutant S100T (human, UniProt Q07011 24-186); assay: as above
T15 construct: Mutant of human CD137-ECD-C121S-Fc; not shown: Fc part
Text: as §1

[17] = molecular target: T16, human PD-1-extracellular domain (ECD) (human, UniProt Q15116 25-170); assay: SPR (Biacore 2000) at 37 C, antibody captured on Protein A, soluble PD-1-ECD as analyte, 1:1 Langmuir fit, mean ± SD
T16 construct: also called human PD-1-ECD; PD-1-ECD
Description: Samples are diluted in HBS-EP+(10 mM HEPES, 150 mM NaCl, 0.05% Tween-20, pH 7.6) running buffer (Teknova Cat #H8022). Protein A (5 mg/mL, Calbiochem Cat #539202) is immobilized on flow cells 1 to 4 of a CM5 senor chip (GE Healthcare Cat #29149604) at a level of 3000 to 4000 response units (RUs) using amine coupling chemistry. Briefly, the surfaces of all four flow cells are activated by injecting a 1:1 mixture of EDC/NHS for 7-minutes at 10 μL/minute. Protein A is diluted to 200 μg/mL in 10 mM acetate, pH 4.5 buffer and immobilized for approximately 3000-4000 RUs onto all four flow cells by 7-minute injection at flow rate of 10 μL/minute. Unreacted sites are blocked with a 7-minute injection of 1M Ethanolamine-HCl pH 8.5 at 10 μL/minute. Five 30-second injections of glycine pH 1.5 at 10 μL/minute are used to remove any non-covalently associated protein.
Binding is evaluated using multi-cycle kinetics by an antibody capture method. […] All analyte concentrations are determined utilizing monomeric molecular weight (MW) values. Association rates (kₒₙ) and dissociation rates (koff) for PD-1-ECD are evaluated using double referencing by flow-cell 1 reference subtraction in addition to 0 nM blank subtraction and fit to “1:1 (Langmuir) binding” model in the BIAevaluation software version 4.1. […]

[18] = molecular target: T2, human PD-1 (on cells); assay: cell-based or functional assay; remark: listed apart in the source

T2 sequence (Q15116 25-288 limits assumed): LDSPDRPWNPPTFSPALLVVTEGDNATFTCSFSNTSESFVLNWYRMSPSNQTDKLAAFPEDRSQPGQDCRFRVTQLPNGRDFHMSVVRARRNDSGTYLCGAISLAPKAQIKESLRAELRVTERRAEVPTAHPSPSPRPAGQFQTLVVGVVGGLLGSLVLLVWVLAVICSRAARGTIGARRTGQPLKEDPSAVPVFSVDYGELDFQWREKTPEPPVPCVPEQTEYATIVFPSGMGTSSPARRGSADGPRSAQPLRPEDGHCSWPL
human CD137 (on cells), sequence (Q07011 24-255 limits assumed): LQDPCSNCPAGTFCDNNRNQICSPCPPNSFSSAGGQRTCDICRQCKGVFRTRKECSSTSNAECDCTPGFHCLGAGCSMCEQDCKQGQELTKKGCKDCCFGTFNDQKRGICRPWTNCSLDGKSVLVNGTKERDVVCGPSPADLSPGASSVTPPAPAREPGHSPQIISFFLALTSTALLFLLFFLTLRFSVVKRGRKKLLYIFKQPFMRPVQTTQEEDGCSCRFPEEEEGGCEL
T10 sequence (Q07011 24-186 G98Q/C121S): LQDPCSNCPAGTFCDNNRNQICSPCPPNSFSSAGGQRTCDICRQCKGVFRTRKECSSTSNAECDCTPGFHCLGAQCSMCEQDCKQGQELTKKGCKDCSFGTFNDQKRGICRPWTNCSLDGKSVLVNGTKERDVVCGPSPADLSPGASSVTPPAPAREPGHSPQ
T11 sequence (Q07011 24-186 K114E/C121S): as the sequence (Q07011 24-186 G98Q/C121S) above, with Q75G, K91E counted along it
T6 sequence (Q07011 24-186 D63N/C121S): as the sequence (Q07011 24-186 G98Q/C121S) above, with D40N, Q75G counted along it
T5 sequence (Q07011 24-186 P27L/C121S): as the sequence (Q07011 24-186 G98Q/C121S) above, with P4L, Q75G counted along it
T8 sequence (Q07011 24-186 M101R/C121S): as the sequence (Q07011 24-186 G98Q/C121S) above, with Q75G, M78R counted along it
T12 sequence (Q07011 24-186 Q67R/C121S): as the sequence (Q07011 24-186 G98Q/C121S) above, with Q44R, Q75G counted along it
T4 sequence (Q07011 24-186 Q67V/C121S): as the sequence (Q07011 24-186 G98Q/C121S) above, with Q44V, Q75G counted along it
T7 sequence (Q07011 24-186 Q104K/C121S): as the sequence (Q07011 24-186 G98Q/C121S) above, with Q75G, Q81K counted along it
T3 sequence (Q07011 24-186 G98K/C121S): as the sequence (Q07011 24-186 G98Q/C121S) above, with Q75K counted along it
T13 sequence (Q07011 24-186 A97P/C121S): as the sequence (Q07011 24-186 G98Q/C121S) above, with A74P, Q75G counted along it
T15 sequence (Q07011 24-186 S100T/C121S): as the sequence (Q07011 24-186 G98Q/C121S) above, with Q75G, S77T counted along it
T14 sequence (Q07011 24-186 K115Q/C121S): as the sequence (Q07011 24-186 G98Q/C121S) above, with Q75G, K92Q counted along it
T9 sequence (Q07011 24-186 N42S/C121S): as the sequence (Q07011 24-186 G98Q/C121S) above, with N19S, Q75G counted along it
T16 sequence (Q15116 25-170 limits assumed): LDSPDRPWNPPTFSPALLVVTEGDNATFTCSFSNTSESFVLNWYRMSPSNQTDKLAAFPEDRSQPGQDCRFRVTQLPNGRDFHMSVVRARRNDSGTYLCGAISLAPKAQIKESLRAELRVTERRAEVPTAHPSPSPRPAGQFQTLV
T1 sequence (Q07011 24-186 limits assumed): as the sequence (Q07011 24-186 G98Q/C121S) above, with Q75G, S98C counted along it

Binder | IFN-γ mean EC50 in allogeneic MLR assay (3 donor pairs) [2] | IL-2 mean EC50 in allogeneic MLR assay (3 donor pairs) [2] [nM] | % of binding relative to wild-type hCD137 [4] [%] | % of binding relative to wild-type hCD137 [5] [%] | % of binding relative to wild-type hCD137 [6] [%] | % of binding relative to wild-type hCD137 [7] [%] | % of binding relative to wild-type hCD137 [8] [%] | % of binding relative to wild-type hCD137 [9] [%] | % of binding relative to wild-type hCD137 [11] [%] | % of binding relative to wild-type hCD137 [12] [%] | % of binding relative to wild-type hCD137 [13] [%] | % of binding relative to wild-type hCD137 [14] [%] | % of binding relative to wild-type hCD137 [15] [%] | % of binding relative to wild-type hCD137 [16] [%] | other results
B1 | > 32 nM | > 32 | 85 | 100 | 100 | 100 | 100 | 100 | 100 | 20 | 100 | 15 | 25 | 100 | Kd [1]: 341 nM; fold induction of NFkB-Luc luciferase signal at 0.01 nM antibody [3]: 0.98 fold; fold induction of NFkB-Luc luciferase signal at 0.04 nM antibody [3]: 0.88 fold; fold induction of NFkB-Luc luciferase signal at 0.15 nM antibody [3]: 0.94 fold; fold induction of NFkB-Luc luciferase signal at 0.59 nM antibody [3]: 1.07 fold; fold induction of NFkB-Luc luciferase signal at 2.34 nM antibody [3]: 1.66 fold; fold induction of NFkB-Luc luciferase signal at 9.38 nM antibody [3]: 2.29 fold; fold induction of NFkB-Luc luciferase signal at 37.50 nM antibody [3]: 2.72 fold; fold induction of NFkB-Luc luciferase signal at 150.00 nM antibody [3]: 2.6 fold; % of binding relative to wild-type hCD137 [10]: 100%
B2 | 88 pM | 0.238 | – | – | – | – | – | – | – | – | – | – | – | – | Kd [17]: 3.1 nM; EC50, NFAT-Luc reporter assay (Jurkat PD-1+CD137+NFAT-Luc2 cells with CHO-K1 PD-L1+TCR activator cells) [18]: 1.4 nM
B3 | – | – | 100 | 100 | 85 | 100 | 100 | 100 | 100 | 100 | 100 | 100 | 100 | 100 | –
